Common to all, as to assay: multiplexed single-antigen bead assay (Luminex); 5 µg PE-conjugated KIR tetramers, 30 min at room temperature, with LABScreen HLA Class I Single Antigen beads; MFI normalised to the highest value of each experiment
The target of experiment [1] is bead-bound HLA-C*14:02 presenting a broad repertoire of peptides (human).
In experiment [2] the target is bead-bound HLA-C*15:02 presenting a broad repertoire of peptides (human).
In experiment [3] the target is bead-bound HLA-C*17:01 presenting a broad repertoire of peptides (human).

Chain of soluble tetrameric form of KIR2DL2 (PE-conjugated KIR tetramer) (P43627 22-245): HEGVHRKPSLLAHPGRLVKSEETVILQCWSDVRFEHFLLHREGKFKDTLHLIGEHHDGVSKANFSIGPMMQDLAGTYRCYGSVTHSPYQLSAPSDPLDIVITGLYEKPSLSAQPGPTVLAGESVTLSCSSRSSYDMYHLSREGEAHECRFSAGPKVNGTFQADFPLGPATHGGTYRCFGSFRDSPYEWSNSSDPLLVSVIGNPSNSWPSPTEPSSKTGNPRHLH
Chain of soluble tetrameric form of KIR2DL3 (PE-conjugated KIR tetramer) (P43628 22-245): as the sequence (P43627 22-245) above, with R16P, E35Q, C148R, I200T, K216E counted along it

In experiment [1], “soluble tetrameric form of KIR2DL2 (PE-conjugated KIR tetramer) (from UniProt P43627 22-245) (receptor)” displayed a percent of the avidity of the top binding allomorph of 14.7%. In addition, the percent of the top avidity in experiment [2] and in experiment [3] was 55% throughout.
In turn, “soluble tetrameric form of KIR2DL3 (PE-conjugated KIR tetramer) (from UniProt P43628 22-245) (receptor)” showed a percent of the maximum avidity in experiment [1] of 43%.

For the origin of these results see article PMC8041999.
